T1: soluble human IL-6R (human, UniProt P08887 20-357)
T1 construct: also called hsIL-6R; recombinant human IL6R
T1 sequence: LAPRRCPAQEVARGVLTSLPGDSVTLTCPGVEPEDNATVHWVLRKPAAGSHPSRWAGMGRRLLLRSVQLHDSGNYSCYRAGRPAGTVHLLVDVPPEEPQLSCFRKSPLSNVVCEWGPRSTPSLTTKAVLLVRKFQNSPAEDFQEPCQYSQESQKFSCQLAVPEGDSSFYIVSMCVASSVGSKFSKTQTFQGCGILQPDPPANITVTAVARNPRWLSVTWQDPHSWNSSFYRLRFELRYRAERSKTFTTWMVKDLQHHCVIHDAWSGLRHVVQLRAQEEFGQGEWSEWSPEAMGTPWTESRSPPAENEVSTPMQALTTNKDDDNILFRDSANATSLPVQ

T2: human CD3ed-Fc (biotin-labeled human CD3 epsilon and human CD3 delta linked to a human antibody constant … (human, biotin-labeled (BirA co-expression); site not stated)
T2 construct: also called CD3 epsilon delta heterodimer fused with the antibody constant region
T2 chain 1: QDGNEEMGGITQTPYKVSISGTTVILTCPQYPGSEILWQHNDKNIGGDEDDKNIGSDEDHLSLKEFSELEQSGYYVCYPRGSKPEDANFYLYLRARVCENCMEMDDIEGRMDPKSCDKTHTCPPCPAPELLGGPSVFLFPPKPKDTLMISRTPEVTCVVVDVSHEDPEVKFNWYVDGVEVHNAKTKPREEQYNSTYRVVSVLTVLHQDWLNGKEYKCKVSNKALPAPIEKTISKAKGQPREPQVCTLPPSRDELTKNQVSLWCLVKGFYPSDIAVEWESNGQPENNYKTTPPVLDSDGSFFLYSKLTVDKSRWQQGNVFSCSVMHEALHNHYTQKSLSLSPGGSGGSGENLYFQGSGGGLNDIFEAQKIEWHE
T2 chain 2: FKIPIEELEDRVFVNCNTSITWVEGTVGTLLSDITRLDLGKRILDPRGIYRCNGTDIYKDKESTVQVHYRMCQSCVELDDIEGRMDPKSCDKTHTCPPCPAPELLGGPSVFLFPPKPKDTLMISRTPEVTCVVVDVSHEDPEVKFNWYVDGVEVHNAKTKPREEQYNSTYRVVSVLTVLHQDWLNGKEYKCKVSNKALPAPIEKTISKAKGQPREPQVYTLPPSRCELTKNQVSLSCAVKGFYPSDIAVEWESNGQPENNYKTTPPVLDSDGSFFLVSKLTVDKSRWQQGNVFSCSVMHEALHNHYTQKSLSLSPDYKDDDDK


Biological target: T1, soluble human IL-6R
Assay: BLI (Octet) as in Example 3

Row | binding result | Binder
1 | binds | 20A11-G1m/VK1-39-k0MT (antibody, human IgG1, kappa, V domains shown) VH: EVQLVESGGGLVQPGGSLRLSCAASGSVFKINVMAWYRQAPGKGRELVAGIISGGSTSYADSVKGRFTISRDNAKNTLYLQMNSLRPEDTAVYYCAFITTESDYDLGRRYWGQGTLVTVSS VL: DIQMTQSPSSLSASVGDRVTITCRASQSISSYLNWYQQKPGKAPKLLIYAASSLQSGVPSRFSGSGSGTDFTLTISSLQPEDFATYYCLQFDSYPLTFGGGTKVEIKR
2 | binds | 20A11-G1m/VL3-21-lamL (antibody, human IgG1, lambda, V domains shown) VH: EVQLVESGGGLVQPGGSLRLSCAASGSVFKINVMAWYRQAPGKGRELVAGIISGGSTSYADSVKGRFTISRDNAKNTLYLQMNSLRPEDTAVYYCAFITTESDYDLGRRYWGQGTLVTVSS VL: SYVLTQPPSVSVAPGKTARITCGGNNIGSKSVHWYQQKPGQAPVLVIYYDSDRPSGIPERFSGSNSGNTATLTISRVEAGDEADYYCQAWDSSTDVVFGGGTKLTVLG
3 | binds | 20A11-G1m/VL1-40-lamL (antibody, human IgG1, lambda, V domains shown) VH: EVQLVESGGGLVQPGGSLRLSCAASGSVFKINVMAWYRQAPGKGRELVAGIISGGSTSYADSVKGRFTISRDNAKNTLYLQMNSLRPEDTAVYYCAFITTESDYDLGRRYWGQGTLVTVSS VL: QSVLTQPPSVSGAPGQRVTISCTGSSSNIGAGYDVHWYQQLPGTAPKLLIYGNSNRPSGVPDRFSGSKSGTSASLAITGLQAEDEADYYCQSYDNSLNAVVFGGGTKLTVLG
4 | binds | 20A11-G1m/VL2-14-lamL (antibody, human IgG1, lambda, V domains shown) VH: EVQLVESGGGLVQPGGSLRLSCAASGSVFKINVMAWYRQAPGKGRELVAGIISGGSTSYADSVKGRFTISRDNAKNTLYLQMNSLRPEDTAVYYCAFITTESDYDLGRRYWGQGTLVTVSS VL: QSALTQPASVSGSPGQSITISCTGTSSDVGGYNYVSWYQQHPGKAPKLMIYEVSNRPSGVSNRFSGSKSGNTASLTISGLQAEDEADYYCSSYRSGYTLVVFGGGTKLTVLG
5 | binds | 20A11-G1m/VL1-44-lamL (antibody, human IgG1, lambda, V domains shown) VH: EVQLVESGGGLVQPGGSLRLSCAASGSVFKINVMAWYRQAPGKGRELVAGIISGGSTSYADSVKGRFTISRDNAKNTLYLQMNSLRPEDTAVYYCAFITTESDYDLGRRYWGQGTLVTVSS VL: not shown
6 | binds | 20A11-G1m/VK2-28-k0MT (antibody, human IgG1, kappa, V domains shown) VH: EVQLVESGGGLVQPGGSLRLSCAASGSVFKINVMAWYRQAPGKGRELVAGIISGGSTSYADSVKGRFTISRDNAKNTLYLQMNSLRPEDTAVYYCAFITTESDYDLGRRYWGQGTLVTVSS VL: not shown

Biological target: T2, human CD3ed-Fc (biotin-labeled human …)
Assay: BLI (Octet RED) as in Example 3

Row | binding result | Binder
7 | no binding | bC3edL1R1N160H01-G1mISHI01/VK1-39-k0MT (before protease treatment) (antibody, human IgG1, kappa, V domains shown) VH: QVQLVESGGGLVQPGGSLRLSCAASGFTFNHCWMYWVRQAPGKGLEWVSVINTDGGSAYYADSVKGRFTISRDNAKNTLYLQMNSLKSEDTAVYYCARDWAPLVDYYYGMDYWGKGTLVTVSG VL: DIQMTQSPSSLSASVGDRVTITCRASQSISSYLNWYQQKPGKAPKLLIYAASSLQSGVPSRFSGSGSGTDFTLTISSLQPEDFATYYCLQFDSYPLTFGGGTKVEIKR

Biological target: T1, soluble human IL-6R
Assay: BLI (Octet) as in Example 3, 30 degrees C or 25 degrees C

Row | binding result | Binder
8 | no binding | 20A11hu-G1m/VK1-39-k0MT (antibody, human IgG1, kappa, V domains shown) VH: EVQLVESGGGLVQPGGSLRLSCAASGSVFKINVMAWVRQAPGKGLEWVAGIISGGSTSYADSVKGRFTISRDNAKNTLYLQMNSLRPEDTAVYYCAFITTESDYDLGRRYWGQGTLVTVSS VL: DIQMTQSPSSLSASVGDRVTITCRASQSISSYLNWYQQKPGKAPKLLIYAASSLQSGVPSRFSGSGSGTDFTLTISSLQPEDFATYYCLQFDSYPLTFGGGTKVEIKR
9 | no binding | 20A11hu-G1m/VL2-14-lamL (antibody, human IgG1, lambda, V domains shown) VH: EVQLVESGGGLVQPGGSLRLSCAASGSVFKINVMAWVRQAPGKGLEWVAGIISGGSTSYADSVKGRFTISRDNAKNTLYLQMNSLRPEDTAVYYCAFITTESDYDLGRRYWGQGTLVTVSS VL: QSALTQPASVSGSPGQSITISCTGTSSDVGGYNYVSWYQQHPGKAPKLMIYEVSNRPSGVSNRFSGSKSGNTASLTISGLQAEDEADYYCSSYRSGYTLVVFGGGTKLTVLG
10 | no binding | 20A11hu-G1m/VK2-28-k0MT (antibody, human IgG1, kappa, V domains shown) VH: EVQLVESGGGLVQPGGSLRLSCAASGSVFKINVMAWVRQAPGKGLEWVAGIISGGSTSYADSVKGRFTISRDNAKNTLYLQMNSLRPEDTAVYYCAFITTESDYDLGRRYWGQGTLVTVSS VL: not shown
11 | no binding | 20A11hu-G1m/VL1-40-lamL (antibody, human IgG1, lambda, V domains shown) VH: EVQLVESGGGLVQPGGSLRLSCAASGSVFKINVMAWVRQAPGKGLEWVAGIISGGSTSYADSVKGRFTISRDNAKNTLYLQMNSLRPEDTAVYYCAFITTESDYDLGRRYWGQGTLVTVSS VL: QSVLTQPPSVSGAPGQRVTISCTGSSSNIGAGYDVHWYQQLPGTAPKLLIYGNSNRPSGVPDRFSGSKSGTSASLAITGLQAEDEADYYCQSYDNSLNAVVFGGGTKLTVLG
12 | no binding | 20A11hu-G1m/VL1-44-lamL (antibody, human IgG1, lambda, V domains shown) VH: EVQLVESGGGLVQPGGSLRLSCAASGSVFKINVMAWVRQAPGKGLEWVAGIISGGSTSYADSVKGRFTISRDNAKNTLYLQMNSLRPEDTAVYYCAFITTESDYDLGRRYWGQGTLVTVSS VL: not shown

Biological target: T1, soluble human IL-6R
Assay: BLI (Octet HTX), molecule on Protein A biosensor, hsIL-6R as analyte, 30 degrees C
Description: The hsIL-6R binding evaluation of each molecule was conducted using Octet HTX (Pall ForteBio Corp.). Specifically, each molecule was bound to Biosensor/Protein A (ProA) (Pall ForteBio Corp., 18-5013), and hsIL-6R was allowed to act thereon, followed by binding evaluation at 30 degrees C.

Row | binding result | Binder
13 | no binding | IL6R90-G1m/VK2-28-k0MT (antibody, human IgG1, kappa, V domains shown, IgG antibody-like molecule) VH: EVQLVESGGGLVQPGGSLRLSCAASGFTFDDYGMSWVRQAPGKALEWVSAISWNGNNTYYTESMKGRFTISRDNAKNTLYLQMNSLRPEDTAVYYCVKGSTAIVGVPPTYPDEYDYWGQGTLVTVSS VL: not shown
14 | no binding | IL6R90-G1m/VL1-40-lamL (antibody, human IgG1, lambda, V domains shown, IgG antibody-like molecule) VH: EVQLVESGGGLVQPGGSLRLSCAASGFTFDDYGMSWVRQAPGKALEWVSAISWNGNNTYYTESMKGRFTISRDNAKNTLYLQMNSLRPEDTAVYYCVKGSTAIVGVPPTYPDEYDYWGQGTLVTVSS VL: QSVLTQPPSVSGAPGQRVTISCTGSSSNIGAGYDVHWYQQLPGTAPKLLIYGNSNRPSGVPDRFSGSKSGTSASLAITGLQAEDEADYYCQSYDNSLNAVVFGGGTKLTVLG
15 | no binding | IL6R90-G1m/VL2-14-lamL (antibody, human IgG1, lambda, V domains shown, IgG antibody-like molecule) VH: EVQLVESGGGLVQPGGSLRLSCAASGFTFDDYGMSWVRQAPGKALEWVSAISWNGNNTYYTESMKGRFTISRDNAKNTLYLQMNSLRPEDTAVYYCVKGSTAIVGVPPTYPDEYDYWGQGTLVTVSS VL: QSALTQPASVSGSPGQSITISCTGTSSDVGGYNYVSWYQQHPGKAPKLMIYEVSNRPSGVSNRFSGSKSGNTASLTISGLQAEDEADYYCSSYRSGYTLVVFGGGTKLTVLG
16 | no binding | IL6R90-G1m/VL1-44-lamL (antibody, human IgG1, lambda, V domains shown, IgG antibody-like molecule) VH: EVQLVESGGGLVQPGGSLRLSCAASGFTFDDYGMSWVRQAPGKALEWVSAISWNGNNTYYTESMKGRFTISRDNAKNTLYLQMNSLRPEDTAVYYCVKGSTAIVGVPPTYPDEYDYWGQGTLVTVSS VL: not shown

Biological target: T2, human CD3ed-Fc (biotin-labeled human …)
Assay: phage display: phage ELISA or panning on biotin-labeled human CD3ed-Fc (binding clone for human CD3)
Description: The obtained phages were evaluated for their binding to IL6R, CD3 or plexin A1 by ELISA. The sequence of a bound clone was analyzed by a method known to those skilled in the art to identify VHH binding to the antigen.
Phage production was performed from E. coli retaining the constructed phagemids for phage display. A phage population was precipitated by the addition of 2.5 M NaCl/10% PEG to the culture solution of the E. coli after the phage production, and then diluted with TB S to obtain a phage library solution. […] The magnetic beads used were NeutrAvidin coated beads (FG beads NeutrAvidin) or Streptavidin coated beads (Dynabeads MyOne Streptavidin T1).
Specifically, 100 pmol of the biotin-labeled antigen was added to the prepared phage library solution, and the phage library solution was contacted with the antigen at room temperature for 60 minutes. The magnetic beads blocked with BSA were added thereto, and the complexes of the antigen and the phages were bound to the magnetic beads at room temperature for 15 minutes. The beads were washed twice with 0.5 mL of TBST (TBS containing 0.1% Tween 20; TBS was manufactured by Takara Bio Inc.) and then further washed once with 0.5 mL of TBS. Then, 0.5 mL of 1 mg/mL trypsin was added thereto, and the beads were suspended at room temperature for 15 minutes and immediately thereafter, separated using a magnetic stand to recover a phage solution. The recovered phage solution was added to 20 mL of an E. coli line ER2738 in an exponential stage of growth (OD600: 0.4-0.5). The E. coli was cultured with mild stirring at 37 degrees C. for 1 hour and thereby infected by the phages.

Row | binding result | Binder
17 | binds | bC3edL1R1N164H01 (VHH) VHH: QVQLVESGGGLVQPGGSLRLSCAASGFTFDVYGMSWVRHSPGKGLEWVSTINWNGGSTYYAESMKGRFTISRDNAKNTVYLQMNSLKPEDTAVYYCAKFAPWDGDMEWGQGTQVTVSG
18 | binds | bC3edL1R1N160H01 (VHH) VHH: QVQLVESGGGLVQPGGSLRLSCAASGFTFNHCWMYWVRQAPGKGLEWVSVINTDGGSAYYADSVKGRFTISRDNAKNTLYLQMNSLKSEDTAVYYCARDWAPLVDYYYGMDYWGKGTLVTVSG
19 | binds | bC3edL1R1N161H01 (VHH) VHH: QVQLVESGGGLVQPGGSLRLSCAASGFPFDNYVMSWVRQAPGKGLEWISAISWNGGSTYYAESMKGRFTISRDNAKSTLYLQMNSLKSEDTAVYYCAKEPRVYYSGSPDYWGQGTQVTVSG

— patent publication US20210155701A1 (Chugai, published 2021)
